Substitutions are numbered along the chain they refer to. Names may count otherwise.

The results in this text go back to US20250282874A1 (SUZHOU TRANSCENTA THERAPEUTICS, published 2025).

B1: IgG-scFv-ACZ885-AM4B6 (bispecific antibody)
heavy: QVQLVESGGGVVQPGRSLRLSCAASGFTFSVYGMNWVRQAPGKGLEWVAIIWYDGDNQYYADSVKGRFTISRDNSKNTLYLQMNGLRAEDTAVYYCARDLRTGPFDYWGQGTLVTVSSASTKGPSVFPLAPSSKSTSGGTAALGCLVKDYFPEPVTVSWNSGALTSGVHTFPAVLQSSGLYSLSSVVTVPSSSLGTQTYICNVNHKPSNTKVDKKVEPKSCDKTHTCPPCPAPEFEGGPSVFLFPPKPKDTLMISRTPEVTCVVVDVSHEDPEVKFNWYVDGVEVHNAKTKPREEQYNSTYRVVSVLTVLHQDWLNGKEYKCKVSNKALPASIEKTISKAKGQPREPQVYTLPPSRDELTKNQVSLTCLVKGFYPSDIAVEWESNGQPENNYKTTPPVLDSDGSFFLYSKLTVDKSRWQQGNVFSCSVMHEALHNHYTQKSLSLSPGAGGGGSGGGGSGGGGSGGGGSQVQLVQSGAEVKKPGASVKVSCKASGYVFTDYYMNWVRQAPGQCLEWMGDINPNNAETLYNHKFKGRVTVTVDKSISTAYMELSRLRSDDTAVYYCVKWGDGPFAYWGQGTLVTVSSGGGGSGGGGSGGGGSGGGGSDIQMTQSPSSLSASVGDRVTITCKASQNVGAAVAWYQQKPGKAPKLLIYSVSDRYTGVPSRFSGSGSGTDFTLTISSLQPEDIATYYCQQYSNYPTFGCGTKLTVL
light: EIVLTQSPDFQSVTPKEKVTITCRASQSIGSSLHWYQQKPDQSPKLLIKYASQSFSGVPSRFSGSGSGTDFTLTINSLEAEDAAAYYCHQSSSLPFTFGPGTKVDIKRTVAAPSVFIFPPSDEQLKSGTASVVCLLNNFYPREAKVQWKVDNALQSGNSQESVTEQDSKDSTYSLSSTLTLSKADYEKHKVYACEVTHQGLSSPVTKSFNRGEC
notes: Anti-IL-1β IgG (Canakinumab) with the AM4B6 scFv on the C-terminus of the heavy chain
B2: Chimeri 4B6 (antibody, V domains shown)
VH: EVQLQQSGPELVKPGASVKISCKASGYVFTDYYMNWVKQSHGKSLEWIGDINPNNGGTSYNHKFKGKATVTVDKSSRTAYMELLSLTSEDSAVYYCVKWGDGPFAYWGQGTLVTVSA
VL: DIVMTQSQKFMSTSVGDRVSITCKASQNVGAAVAWYQQKPGQSPKLLIYSASNRYTGVPDRFTGSGSGTDFTLTISNMQSEDLADYFCQQYSNYPTFGSGTKLGIK
notes: spelling as printed; also called chimeric 4B6; mouse/chimeric antibody 4B6
B3: Hu4B6_HbLa (antibody, human IgG1, V domains shown)
VH: QVQLVQSGAEVKKPGASVKVSCKASGYTFTDYYMNWVRQAPGQGLEWMGDINPNNGGTSYNHKFKGRVTVTVDTSISTAYMELSRLRSDDTAVYYCVKWGDGPFAYWGQGTLVTVSS
VL: DIQMTQSPSSLSASVGDRVTITCKASQNVGAAVAWYQQKPGKAPKLLIYSASNRYTGVPSRFSGSGSGTDFTLTISSLQPEDIATYYCQQYSNYPTFGQGTKLEIK
B4: Hu4B6_HcLa (antibody, human IgG1, V domains shown)
VH: B3 VH with T28V, T74K, V97A, K98R
VL: B3 VL
B5: Hu4B6_HaLa (antibody, human IgG1, V domains shown)
VH: B3 VH with V97A, K98R
VL: B3 VL
B6: Hu4B6_HaLb (antibody, human IgG1, V domains shown)
VH: B3 VH with V97A, K98R
VL: B3 VL with A43S, S60D
B7: Hu4B6_HcLb (antibody, human IgG1, V domains shown)
VH: B3 VH with T28V, T74K, V97A, K98R
VL: B3 VL with A43S, S60D
B8: Hu4B6_HbLb (antibody, human IgG1, V domains shown)
VH: B3 VH
VL: B3 VL with A43S, S60D
B9: Hu4B6_HdLb (antibody, human IgG1, V domains shown)
VH: B3 VH with T28V, G44S, T74K
VL: B3 VL with A43S, S60D
B10: Hu4B6_HdLa (antibody, human IgG1, V domains shown)
VH: B3 VH with T28V, G44S, T74K
VL: B3 VL
B11: 4B6-HgLa scFv (wild-type sequence for affinity maturation) (scFv)
scFv: DIQMTQSPSSLSASVGDRVTITCKASQNVGAAVAWYQQKPGKAPKLLIYSASNRYTGVPSRFSGSGSGTDFTLTISSLQPEDIATYYCQQYSNYPTFGQGTKLEIKGGGGSGGGGSGGGGSQVQLVQSGAEVKKPGASVKVSCKASGYVFTDYYMNWVRQAPGQSLEWMGDINPNNAGTSYNHKFKGRVTVTVDKSISTAYMELSRLRSDDTAVYYCVKWGDGPFAYWGQGTLVTVSS
notes: written VL-linker-VH; also called L-CDR1-WT; L-CDR2-WT
B12: 4B6 scFv variant L-CDR2-3 (scFv)
scFv: B11 scFv with A51V, N53D
notes: also called 4B6-L-CDR2-3
B13: 4B6 scFv variant L-CDR2-2 (scFv)
scFv: B11 scFv with A51R, N53V
notes: also called 4B6-L-CDR2-2
B14: 4B6 scFv variant L-CDR2-1 (scFv)
scFv: B11 scFv with A51N, N53H
notes: also called 4B6-L-CDR2-1
B15: 4B6 scFv variant L-CDR1-2 (scFv)
scFv: B11 scFv with G30P
notes: also called 4B6-L-CDR1-2
B16: 4B6 scFv variant L-CDR1-1 (scFv)
scFv: B11 scFv with A32I
notes: also called 4B6-L-CDR1-1
B17: 4B6 scFv variant L-CDR1-3 (scFv)
scFv: B11 scFv with G30K, A31G
notes: also called 4B6-L-CDR1-3
B18: 4B6 scFv variant H-CDR2-2 (scFv)
scFv: B11 scFv with G178Q, S180Q
notes: also called 4B6-H-CDR2-2
B19: 4B6 scFv variant H-CDR2-4 (scFv)
scFv: B11 scFv with A177G, G178L
notes: also called 4B6-H-CDR2-4
B20: 4B6 scFv variant H-CDR2-1 (scFv)
scFv: B11 scFv with G178D, S180M
notes: also called 4B6-H-CDR2-1
B21: 4B6 scFv variant H-CDR2-5 (scFv)
scFv: B11 scFv with G178Q, S180V
notes: also called 4B6-H-CDR2-5
B22: 4B6 scFv variant H-CDR2-3 (scFv)
scFv: B11 scFv with G178E, S180L
notes: also called 4B6-H-CDR2-3
B23: ACZ885 (antibody, V domains shown)
VH: QVQLVESGGGVVQPGRSLRLSCAASGFTFSVYGMNWVRQAPGKGLEWVAIIWYDGDNQYYADSVKGRFTISRDNSKNTLYLQMNGLRAEDTAVYYCARDLRTGPFDYWGQGTLVTVSS
VL: EIVLTQSPDFQSVTPKEKVTITCRASQSIGSSLHWYQQKPDQSPKLLIKYASQSFSGVPSRFSGSGSGTDFTLTINSLEAEDAAAYYCHQSSSLPFTFGPGTKVDIK
notes: Monoclonal anti-IL-1β antibody; also called Canakinumab
B24: Hu4B6_HgLa (antibody, V domains shown)
VH: B3 VH with T28V, G44S, G56A, T74K
VL: B3 VL
notes: Hu4B6_Hd with G55A, paired with Hu4B6_La

One experiment addresses T1, hPD-L1 (Acro Biosystems, PD1-H5229) (human, UniProt Q9NZQ7 19-238).
T1 construct: also called human PD-L1; hPD-L1 protein
Put plainly: ELISA, hPD-L1 coated, anti-human Fc-HRP, OD450.
As for B1, it took 0.0363 nM to reach a half-maximal effect (EC50).

In the next experiment the target is T2, human PD-L1-His (human, UniProt Q9NZQ7 19-238, limits assumed).
T2 construct: not shown: His tag
As to the kind of experiment: ELISA, human PD-L1-His coated, anti-human IgG-HRP, OD450.
In turn, B2 returned an EC50 of 2.05 nM.

Take B3: a half-maximal effect (EC50) was put at 2.38 nM.

B4 returned an EC50 of 5.74 nM. Compared with the last molecule, the EC50 is about 2.4-fold higher.

Consider B5, for which a half-maximal response (EC50) required 5.16 nM. The EC50 values of the last two molecules are within 1.5-fold of each other.

B6 showed an EC50 of 6.26 nM.

B7 gave an EC50 of 3.44 nM.

For the molecule B8, the EC50 stood at 2.81 nM.

Consider B9, for which the EC50 worked out at 1.47 nM. Compared with the last molecule, the EC50 is about 1.9-fold lower.

Molecule B10 returned an EC50 of 1.04 nM.

For the next experiment, the target named is T3, human PD-L1-Fc (human, UniProt Q9NZQ7 19-239).
T3 construct: also called hPD-L1-Fc; human PD-L1-Fc (Sino Biological, 70110-D02H); not shown: Fc part
Put plainly: BLI; PD-L1-Fc loaded on the sensor, scFv in solution.
In the case of B11, binding was put at a Kd of 27.6 nM and the kon was 38100 M⁻¹ s⁻¹.

Regarding B12, binding was put at a Kd of 4.37 nM and the on-rate (kon) was determined as 124000 M⁻¹ s⁻¹.

The molecule B13 showed a Kd of 3.34 nM and an association rate constant (kon) of 162000 M⁻¹ s⁻¹.

Turning to B14, the dissociation constant Kd was 8.06 nM and the on-rate (kon) stood at 46800 M⁻¹ s⁻¹.

The next experiment deals with T3, human PD-L1-Fc. The experiment is described as above. This is another data set of the same source.
Turning to B11, the Kd is 28.2 nM and the on-rate (kon) was 35800 M⁻¹ s⁻¹.

In the case of B15, the Kd was 5.68 nM and the kon came out at 271000 M⁻¹ s⁻¹.

Turning to B16, the equilibrium dissociation constant (Kd) came to 6.91 nM and the kon was found to be 41200 M⁻¹ s⁻¹.

As for B17, the dissociation constant (Kd) stood at 2.78 nM and the kon amounted to 91100 M⁻¹ s⁻¹.

The target in a further experiment is T3, human PD-L1-Fc. Described as above. This is another data set of the same source.
For the molecule B11, binding was characterised by a dissociation constant (Kd) of 26.7 nM and the kon stood at 46300 M⁻¹ s⁻¹.

In turn, B18 yielded a Kd of 2.42 nM and a kon of 101000 M⁻¹ s⁻¹.

The molecule B19 gave a dissociation constant Kd of 4.43 nM and a kon of 117000 M⁻¹ s⁻¹.

For B20, the Kd was 3.52 nM and the kon was found to be 141000 M⁻¹ s⁻¹.

Molecule B21 gave a Kd of 2.4 nM and a kon of 102000 M⁻¹ s⁻¹.

Regarding B22, the Kd amounted to 2.43 nM and the kon is 116000 M⁻¹ s⁻¹.

Another experiment has as its target T4, Human IL-1β protein (Sino Biological, Cat #10139) (human, UniProt P01584 117-269). Put plainly: cell-based or functional assay.
For B1, the “IC50, SEAP at OD620, HEK293-CD40L reporter cells stimulated with human IL-1β” value was 0.346 nM.

In the case of B23, the “IC50, SEAP at OD620, HEK293-CD40L reporter cells stimulated with human IL-1β” value came out at 0.294 nM.

Another experiment addresses T5, human PD-L1 expressed on cells (human, UniProt Q9NZQ7 19-290). Put plainly: cell-based or functional assay.
As for B1, the “IC50 (so in the source), luminescence (axis printed OD450), 293T-PD-L1-CD3L cells with Jurkat-NFAT-Luc-PD1 cells” value is ~1.29 nM.

In another experiment the target is T3, human PD-L1-Fc. As to the kind of experiment: BLI; against H-CDR2-WT (G55A).
The molecule B18 came in with a Fold increase of 11 fold.

B19 came in with a Fold increase of 6.03 fold.

B20 showed a Fold increase of 7.6 fold.

In turn, B21 came in with a Fold increase of 11.1 fold.

On to B22, for which the Fold increase is 11 fold.

Another experiment concerns the target T2, human PD-L1-His. Put plainly: ELISA, human PD-L1 coated, OD450.
Regarding B24, the EC50 came out at 0.407 nM.

Consider B10, for which the midpoint of the response, the EC50, lay at 0.347 nM. The EC50 values of the last two molecules are within 1.5-fold of each other.

The next experiment deals with T4, Human IL-1β protein (Sino Biological, …). Put plainly: ELISA, hIL-1β protein coated, anti-human Fc-HRP, OD450.
Molecule B1 gave an EC50 of 0.0182 nM.

In turn, B23 yielded an EC50 of 0.0113 nM.

Another experiment has as its target T3, human PD-L1-Fc. Put plainly: BLI; against L-CDR1-WT.
B15 registered a Fold increase of 4.96 fold.

B16: the Fold increase was found to be 4.08 fold.

B17: the Fold increase was 10.1 fold.

Another experiment addresses T3, human PD-L1-Fc. Put plainly: BLI; against L-CDR2-WT.
Molecule B12 yielded a Fold increase of 6.32 fold.

The molecule B13 came in with a Fold increase of 8.26 fold.

B14 registered a Fold increase of 3.42 fold.

A further experiment has as its target T5, human PD-L1 expressed on cells. As to the kind of experiment: flow cytometry on 293T-PD-L1-CD3L cells, Mean FITC-A as printed.
As for B1, the 50% effective concentration (EC50) was 1.51 nM.
